Data on three molecules can be found in patent publication US20040058368A1 (PENN STATE RESEARCH FOUNDATION, published 2004).

First the molecules themselves.
B1: Gal80p (other, Saccharomyces cerevisiae (yeast), UniProt P04387 1-435, looked up)
chain: MDYNKRSSVSTVPNAAPIRVGFVGLNAAKGWAIKTHYPAILQLSSQFQITALYSPKIETSIATIQRLKLSNATAFPTLESFASSSTIDMIVIAIQVASHYEVVMPLLEFSKNNPNLKYLFVEWALACSLDQAESIYKAAAERGVQTIISLQGRKSPYILRAKELISQGYIGDINSIEIAGNGGWYGYERPVKSPKYIYEIGNGVDLVTTTFGHTIDILQYMTSSYFSRINAMVFNNIPEQELIDERGNRLGQRVPKTVPDHLLFQGTLLNGNVPVSCSFKGGKPTKKFTKNLVIDIHGTKGDLKLEGDAGFAEISNLVLYYSGTRANDFPLANGQQAPLDPGYDAGKEIMEVYHLRNYNAIVGNIHRLYQSISDFHFNTKKIPELPSQFVMQGFDFEGFPTLMDALILHRLIESVYKSNMMGSTLNVSNISHYSL
notes: Endogenous yeast protein, inside the cells; also called Gal80 protein

The target of one assay is T1, Gal80-TBP (Saccharomyces cerevisiae (yeast), UniProt P04387 1-435; P13393 1-240, limits assumed).
T1 construct: The junction and any tags are not described
T1 sequence (looked up): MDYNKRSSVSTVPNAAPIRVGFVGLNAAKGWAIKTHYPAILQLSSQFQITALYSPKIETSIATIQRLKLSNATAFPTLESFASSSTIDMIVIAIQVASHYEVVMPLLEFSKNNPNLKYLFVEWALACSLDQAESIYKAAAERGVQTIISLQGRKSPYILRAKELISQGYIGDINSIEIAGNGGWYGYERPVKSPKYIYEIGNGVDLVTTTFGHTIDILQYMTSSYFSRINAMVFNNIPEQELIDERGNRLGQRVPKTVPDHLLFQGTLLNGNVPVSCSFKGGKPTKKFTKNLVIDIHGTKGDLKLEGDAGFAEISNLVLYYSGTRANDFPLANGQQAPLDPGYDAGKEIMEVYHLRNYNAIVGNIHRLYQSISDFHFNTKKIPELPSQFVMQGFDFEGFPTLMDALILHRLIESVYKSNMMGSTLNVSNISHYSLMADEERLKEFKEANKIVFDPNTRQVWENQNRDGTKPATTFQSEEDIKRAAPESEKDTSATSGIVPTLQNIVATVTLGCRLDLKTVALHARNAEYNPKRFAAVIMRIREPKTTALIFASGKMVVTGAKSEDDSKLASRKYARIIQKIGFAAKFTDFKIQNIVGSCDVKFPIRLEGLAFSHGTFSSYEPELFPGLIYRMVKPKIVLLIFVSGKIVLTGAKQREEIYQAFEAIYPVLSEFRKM
The experiment in a line: 80-Trap HIS3 reporter growth assay in yeast. The text has this: FIG. 5. (Yeast cells) A membrane-targeted transcription factor activates GAL gene expression through interaction with Gal80-TBP. Galactose-independent HIS3 reporter (expression as a result of Gal80-TBP and Myr-TAF145 interaction; lane 1). Lane 2 illustrates the positive control: interaction between two proteins known to interact: Fpr1 (in fusion with Gal80) and Hom3 (fused to the Myr sequence and CFP). Lane 3 is the negative control with Gal80-TBP tested against just the Myr sequence. The nutrient agar plate used here contained 3% glycerol/2% lactic acid as carbon source and lacked histidine, tryptophan and uracil.

In a further assay the target is T2, Gal4p (Saccharomyces cerevisiae (yeast), UniProt P04386 1-881).
T2 construct: Endogenous protein of wild type Sc723 cells, cross-linked in vivo
The experiment in a line: formaldehyde cross-linking and chromatin immunoprecipitation in yeast, un-induced against galactose-induced. How it is done: Fold enrichments are indicated (enrichment). […] FIG. 3C illustrates quantitation of promoter occupancy by Gal4p, Gal80p and Gal3p in un-induced and induced cells. Values are means (±standard deviation) of at least five experiments carried out with two sets of independently prepared chromatin samples.
Chromatin immunoprecipitations were performed as described by Braunstein et al., 1993, Genes Dev. 7: 592-604 and Kuras et al. 1999, Nature 399: 609-613. Briefly, wild type Sc723 cells (Blank et al., 1997, Mol. Cell. Biol. 17: 2566-2575) were grown to early exponential growth phase (as measured by absorbance at 600 nm˜0.4) in 250 mL yeast extract-peptone medium containing 2% glycerol, 3% lactic acid, and 0.05% glucose (-galactose, un-induced). For galactose-induced cultures, galactose was added to the un-induced cultures to a final concentration of 2% and the cultures were incubated for an additional 20 minutes. Formaldehyde was added to a final concentration of 1%, the cultures were incubated for 20 minutes at room temperature, and glycine was added to a final concentration of 300 mM. All the following steps were carried out at […]. Cells were washed twice with TBS (20 mM Tris-HCl, 150 mM NaCl, pH 8.0), resuspended in 1 mL lysis buffer (50 mM Tris-HCl pH 8.0, 10 mM EDTA, 1% SDS, 1 mM PMSF), and disrupted by vortexing with glass beads. […]

For the next assay, the target named is T3, wild type Gal3p (Saccharomyces cerevisiae (yeast), UniProt P13045 1-520).
T3 sequence (looked up): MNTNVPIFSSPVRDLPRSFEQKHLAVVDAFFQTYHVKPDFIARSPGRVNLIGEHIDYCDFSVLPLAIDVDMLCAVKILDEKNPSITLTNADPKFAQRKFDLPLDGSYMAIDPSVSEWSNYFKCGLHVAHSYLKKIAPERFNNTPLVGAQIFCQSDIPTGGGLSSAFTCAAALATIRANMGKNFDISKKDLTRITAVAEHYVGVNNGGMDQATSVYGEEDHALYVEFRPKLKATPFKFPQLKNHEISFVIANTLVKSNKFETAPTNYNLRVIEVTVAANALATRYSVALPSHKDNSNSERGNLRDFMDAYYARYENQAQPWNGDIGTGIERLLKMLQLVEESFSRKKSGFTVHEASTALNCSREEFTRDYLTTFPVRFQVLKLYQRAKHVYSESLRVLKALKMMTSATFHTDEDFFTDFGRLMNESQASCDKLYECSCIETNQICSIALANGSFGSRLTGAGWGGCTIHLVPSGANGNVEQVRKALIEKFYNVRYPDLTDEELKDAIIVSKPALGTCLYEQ
As to the kind of experiment: cell-based or functional assay.

The assay “Gal80p” addresses B1. As to the kind of experiment: UASGAL-HIS3 reporter growth assay in yeast without galactose. From the text: FIG. 6. (Yeast cells) Membrane targeted transcriptional activation domain of Gal4p (Gal4AD; amino acid 758-881) activates HIS3 reporter gene expression. A yeast strain harboring a UASGAL-HIS3 reporter was transformed with Myr-Gal4AD. […] Transformed cells were spotted on synthetic medium plates lacking histidine, tryptophan and uracil and containing 3% glycerol/2% lactic acid as carbon source.

Regarding MGCTVSTQTIGDESDP (N-myristoylation signal) [Myr sequence], in the assay with Gal80-TBP, the binding result was “no binding”.

Consider B1, for which the binding result in the assay with Gal4p was “binds”. In addition, the “MEL1 gene expression level” value in the assay with wild type Gal3p was found to be 2 fold reduction.

B2: Membrane targeted transcriptional activation domain of Gal4p (Myr-Gal4AD) (other, Saccharomyces cerevisiae (yeast))
chain: MGCTVSTQTIGDESDPPLTPSALFGGANFNQSGNIADSSLSFTFTNSSNGPNLITTQTNSQALSQPIASSNVHDNFMNNEITASKIDDGNNSKPLSPGWTDQTAYNAFGITTGMFNTTTMDDVYNYLFDDEDTPPNPKKE
modifications: N-myristoylation signal at the N terminus
notes: range 758-881; also called membrane-localized Gal4AD
On to B2, for which the binding result in the assay with Gal80p was “binds”.
